Assay [1] deals with T1, PTPRG-Fc (ECD of human PTPRG, aa 20-736, fused to human Fc gamma 1) (human, UniProt P23470 20-736).
T1 construct: Made in-house in Expi293 cells; Used in ELISA and SPR; also called recombinant PTPRG-Fc; PTRPG; not shown: human IgG1 Fc (Fc gamma 1) after the hinge
T1 sequence: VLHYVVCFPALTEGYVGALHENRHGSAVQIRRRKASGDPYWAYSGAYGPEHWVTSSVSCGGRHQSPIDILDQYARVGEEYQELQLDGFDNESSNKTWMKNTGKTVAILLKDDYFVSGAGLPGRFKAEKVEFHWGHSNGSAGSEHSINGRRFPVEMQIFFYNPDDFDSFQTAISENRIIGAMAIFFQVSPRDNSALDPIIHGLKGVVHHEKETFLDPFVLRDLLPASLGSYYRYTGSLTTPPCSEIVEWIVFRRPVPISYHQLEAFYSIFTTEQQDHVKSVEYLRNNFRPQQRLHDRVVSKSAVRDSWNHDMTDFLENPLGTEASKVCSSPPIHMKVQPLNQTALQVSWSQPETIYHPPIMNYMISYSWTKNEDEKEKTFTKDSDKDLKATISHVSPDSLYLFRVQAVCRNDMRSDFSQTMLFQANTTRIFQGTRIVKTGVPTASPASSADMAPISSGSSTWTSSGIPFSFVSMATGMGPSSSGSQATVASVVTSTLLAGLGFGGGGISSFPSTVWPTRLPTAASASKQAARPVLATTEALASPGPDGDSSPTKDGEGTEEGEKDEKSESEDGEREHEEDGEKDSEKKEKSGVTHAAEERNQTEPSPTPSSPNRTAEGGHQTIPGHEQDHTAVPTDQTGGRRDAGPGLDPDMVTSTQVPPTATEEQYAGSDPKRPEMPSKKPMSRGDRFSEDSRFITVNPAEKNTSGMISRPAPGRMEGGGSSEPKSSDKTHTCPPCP
As to the kind of experiment: ELISA on coated PTPRG-Fc. As for the experimental part: Recombinant purified ECDs (50-150 ng) of each putative target protein were coated, incubated with 150 ng of the indicated primary antibody, and binding was detected using a peroxidase-conjugated anti-human Fab secondary antibody. Heatmap represents averages of technical triplicates. (8B) Target validation via siRNA knockdown. H929 cells were transfected with siRNA pools targeting the putative antibody targets ICAM1, CADM1, and PTPRG. Cells were then subjected to cognate IgG binding analysis via flow cytometry. (NT, non-targeting siRNA).
ELISA ELISA was conducted as described previously. Briefly, 50-150 ng of antigen was coated overnight in half-area 96-well plates at 4° C., blocked with 3% BSA at 37° C. for 1 h, and 150 ng of chimeric rabbit/human IgG1 was added, incubating for 2 h at 37° C. […] After incubating at 37° C. for 15 min-1 h (depending on intensity of controls), data were acquired using a SpectraMax M5 plate reader (Molecular Devices).
In general terms: In an ELISA, binding on a coated surface is turned into a signal by an enzyme label.

The target of assay [2] is T2, CADM1, endogenous in H929 multiple myeloma cells (human, UniProt Q9BY67 45-442).
T2 construct: Native protein on H929 cells (flow cytometry, siRNA knockdown) and in H929 lysates (IP/MS); RPMI-8226 cells were used for sorting with HW-97; also called IGSF4A
T2 sequence: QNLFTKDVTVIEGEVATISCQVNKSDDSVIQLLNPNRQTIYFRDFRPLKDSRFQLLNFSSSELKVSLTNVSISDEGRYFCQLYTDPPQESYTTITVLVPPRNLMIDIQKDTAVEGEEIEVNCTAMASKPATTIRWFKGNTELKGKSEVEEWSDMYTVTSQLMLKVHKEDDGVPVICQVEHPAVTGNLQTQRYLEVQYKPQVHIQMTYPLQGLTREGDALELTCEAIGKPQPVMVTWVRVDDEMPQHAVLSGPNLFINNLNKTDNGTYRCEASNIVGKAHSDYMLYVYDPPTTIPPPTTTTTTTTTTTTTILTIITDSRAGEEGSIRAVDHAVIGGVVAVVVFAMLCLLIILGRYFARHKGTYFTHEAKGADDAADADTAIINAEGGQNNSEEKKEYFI
The experiment in a line: flow cytometry, H929 + vehicle; None 2.74. A general note: Flow cytometry measures light scatter and fluorescence of single cells or particles in a stream.

Assay [3] deals with T1, PTPRG-Fc (ECD of human PTPRG, aa …). The experiment in a line: ELISA on coated protein.

Residue numbers refer to the chain shown, from its start. Names and notes keep the numbering of the source.

B1: TH9-0022 (antibody, human IgG1, kappa, L234A L235A, V domains shown)
VH: QSLEESGGRLVTPGTPLTLTCTVSGFSLSSYAMNWVRQAPGKGLEWIGIINSYGSTYYASWAKGRFTISKTSTTVDLKITSPTTEDTATYFCARVTYDSYGYGYAPYGMDLWGPGTLVTVSS
VL: LVMTQTPSSTSNAVGGTVTIKCQASQSIGNVLAWYQQKPGQPPKLLIYAASTLASGVPSRVGGSRSGTEYTLTISGVQREDAATYYCLGSDSDSDIAFGGGTELEILR
notes: also called TH9-022; negative control
Regarding B1, the binding result in assay [1] was “no binding (tested: 150 ng IgG1 per well)”. Further, in assay [2], the “Cells stained (%)” value stood at 2.62%.

B2: HW-97 chimeric rabbit-human IgG1 LA/LA/PG (antibody, V domains shown)
VH: QKQLVESGGRLVTPGTPLTLTCTVTGIDLSSHGMSWVRQAPGKGLEWIGVIYPSGSTWYASWARGRFTISKTSTTVDLKMTSLTTEDTATHFCARGDVGGADNNIWGPGTLVTVSS
VL: SFVLTQPASVQVDLGQTVSLTCTAETLSRSYASWYQQKPGQAPVLLIYRDTSRPSGVPDRFSGSSSGNTATLTISGAQAGDEADYYCATSDGSGSSYQYVFGGGTQLTVTG
notes: Fc-silenced (L234A/L235A/P329G) IgG1, lambda; Alexa Fluor 647-labeled in single-step flow cytometry; Prototype of cluster C-97
In the case of B2, the binding result in assay [3] is “no binding (tested: 150 ng IgG1 per well)”. Further, the “Cells stained (%)” value in assay [2] came out at 98.4%.

B3: HW-101 chimeric rabbit-human IgG1 LA/LA/PG (antibody, V domains shown)
VH: QEQLVESGGRLVTPGTPLTLTCKASGFSLGKYDMSWVRQAPGKGLEWIGTIYAGSGSTWYASWAKGRFTISKTSTTVDLKMTSLTTEDTATYFCARDFLGVNSIWGPGTLVTISS
VL: B2 VL with D13N, E25D, G40D, Y48H, S65N, S96N, Y97F, Q98H, Y99F
notes: Fc-silenced (L234A/L235A/P329G) IgG1, lambda; Alexa Fluor 647-labeled in single-step flow cytometry; Cluster C-97
For the molecule B3, the binding result in assay [3] was “no binding (tested: 150 ng IgG1 per well)”. Besides, the “Cells stained (%)” value in assay [2] was 94.3%.

The record behind these values is US20260049134A1 (UNIVERSITY OF FLORIDA RESEARCH FOUNDATION, published 2026).
